According to article PMC4353692, “Structure of the Vacuolar H^+-ATPase Rotary Motor Reveals New Mechanistic Insights” (Structure(London, England:1993), 2015):

T1: Manduca sexta V-ATPase subunit H (Manduca sexta (endogenous in midgut), UniProt Q9U5N0 1-475)
T1 construct: V-type proton ATPase subunit H, Manduca sexta; source: purified from M. sexta midgut, as part of the V-ATPase holoenzyme
T1 sequence (looked up): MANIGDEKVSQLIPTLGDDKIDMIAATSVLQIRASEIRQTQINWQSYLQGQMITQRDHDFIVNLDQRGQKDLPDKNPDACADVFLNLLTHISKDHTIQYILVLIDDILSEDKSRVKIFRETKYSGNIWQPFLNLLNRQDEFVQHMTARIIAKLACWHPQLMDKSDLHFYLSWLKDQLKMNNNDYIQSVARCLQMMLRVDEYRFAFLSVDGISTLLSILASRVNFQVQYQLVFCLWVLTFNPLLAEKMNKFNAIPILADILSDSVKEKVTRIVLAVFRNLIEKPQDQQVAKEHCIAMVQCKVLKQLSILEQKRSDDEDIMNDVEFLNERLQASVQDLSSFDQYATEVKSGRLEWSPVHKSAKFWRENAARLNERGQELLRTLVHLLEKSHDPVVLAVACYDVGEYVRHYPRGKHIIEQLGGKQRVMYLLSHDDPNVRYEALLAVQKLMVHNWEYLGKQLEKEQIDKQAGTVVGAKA

B1: Manduca sexta V-ATPase subunit E (natural protein, Manduca sexta (endogenous in midgut), UniProt P31402 1-226, looked up)
chain: MALSDADVQKQIKHMMAFIEQEANEKAEEIDAKAEEEFNIEKGRLVQQQRLKIMEYYEKKEKQVELQKKIQSSNMLNQARLKVLKVREDHVRNVLDEARKRLAEVPKDIKLYSDLLVTLIVQALFQLVEPTVTLRVRQADKALVESLLGRAQQDYKAKIKKDVVLKIDNENFLPPDTCGGIELIAAKGRIKISNTLESRLELIAQQLLPEIRNALFGRNPNRKFTD
notes: V-type proton ATPase subunit E, Manduca sexta; Three copies in the holoenzyme (stator filaments S1, S2, S3); also called part of the EG stator filaments S1-S3; source: purified from M. sexta midgut, as part of the V-ATPase holoenzyme

Legend:
Experiment in all cases: cryo-EM structure; M. sexta V-ATPase holoenzyme purified from tissue, in C12E10; 9.4 Å reconstruction (gold standard FSC 0.143); homology models of the subunits flexibly fitted by MDFF; side chains not resolved
Conditions in all cases: both partners purified
[1] = target: T2, Manduca sexta V-ATPase subunit A (Manduca sexta (endogenous in midgut), UniProt P31400 1-617)
T2 construct: V-type proton ATPase catalytic subunit A, Manduca sexta; Three copies in the holoenzyme, (AB)3; source: purified from M. sexta midgut, as part of the V-ATPase holoenzyme
T2 sequence (P31400 whole entry): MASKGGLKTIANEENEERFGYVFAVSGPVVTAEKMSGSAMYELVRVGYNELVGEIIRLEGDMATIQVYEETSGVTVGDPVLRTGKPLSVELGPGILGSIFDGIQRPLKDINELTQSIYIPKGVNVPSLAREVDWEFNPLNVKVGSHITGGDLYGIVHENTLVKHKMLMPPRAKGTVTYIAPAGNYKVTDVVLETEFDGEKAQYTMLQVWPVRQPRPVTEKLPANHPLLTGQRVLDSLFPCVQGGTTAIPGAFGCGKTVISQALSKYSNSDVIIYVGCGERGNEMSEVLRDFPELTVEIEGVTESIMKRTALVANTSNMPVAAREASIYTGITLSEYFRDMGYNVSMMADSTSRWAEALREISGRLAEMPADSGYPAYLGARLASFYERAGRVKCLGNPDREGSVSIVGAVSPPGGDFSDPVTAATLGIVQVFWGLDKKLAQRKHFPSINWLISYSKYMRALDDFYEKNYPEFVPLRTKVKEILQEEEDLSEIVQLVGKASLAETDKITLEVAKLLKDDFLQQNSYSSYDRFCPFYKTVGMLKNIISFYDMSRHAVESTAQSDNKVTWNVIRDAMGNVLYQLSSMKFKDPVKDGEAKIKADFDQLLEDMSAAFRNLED

[2] = target: T3, Manduca sexta V-ATPase subunit B (Manduca sexta (endogenous in midgut), UniProt P31401 1-494)
T3 construct: V-type proton ATPase subunit B, Manduca sexta; Three copies in the holoenzyme, (AB)3; source: purified from M. sexta midgut, as part of the V-ATPase holoenzyme
T3 sequence (P31401 whole entry): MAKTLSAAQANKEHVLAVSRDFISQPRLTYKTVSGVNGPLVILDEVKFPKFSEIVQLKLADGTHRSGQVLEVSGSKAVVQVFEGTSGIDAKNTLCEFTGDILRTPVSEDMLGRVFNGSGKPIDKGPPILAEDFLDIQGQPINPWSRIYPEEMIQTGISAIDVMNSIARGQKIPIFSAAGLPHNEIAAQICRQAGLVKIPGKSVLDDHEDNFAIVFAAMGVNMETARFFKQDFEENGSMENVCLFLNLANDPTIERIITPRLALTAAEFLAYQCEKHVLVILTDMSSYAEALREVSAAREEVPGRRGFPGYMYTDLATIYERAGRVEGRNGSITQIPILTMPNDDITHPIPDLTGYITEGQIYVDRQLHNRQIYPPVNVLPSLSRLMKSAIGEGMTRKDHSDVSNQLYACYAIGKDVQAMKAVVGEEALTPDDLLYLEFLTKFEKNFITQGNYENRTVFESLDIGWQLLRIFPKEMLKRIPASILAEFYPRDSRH

[3] = target: T4, Manduca sexta V-ATPase subunit C (Manduca sexta (endogenous in midgut), UniProt Q9U5N1 1-385)
T4 construct: V-type proton ATPase subunit C, Manduca sexta; source: purified from M. sexta midgut, as part of the V-ATPase holoenzyme
T4 sequence (Q9U5N1 whole entry): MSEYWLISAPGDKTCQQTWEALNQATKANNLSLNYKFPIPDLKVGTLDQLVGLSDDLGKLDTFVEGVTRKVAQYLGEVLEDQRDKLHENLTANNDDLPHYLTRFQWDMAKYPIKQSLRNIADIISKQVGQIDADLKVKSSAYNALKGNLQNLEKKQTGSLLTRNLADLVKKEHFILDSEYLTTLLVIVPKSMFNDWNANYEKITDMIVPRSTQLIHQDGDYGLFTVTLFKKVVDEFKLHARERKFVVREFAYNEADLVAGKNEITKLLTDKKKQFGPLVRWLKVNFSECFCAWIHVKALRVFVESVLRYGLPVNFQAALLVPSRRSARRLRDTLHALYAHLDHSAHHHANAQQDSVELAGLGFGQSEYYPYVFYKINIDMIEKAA

[4] = target: B1
[5] = target: T1, Manduca sexta V-ATPase subunit H

| Binder | binding result [1] | binding result [2] | binding result [3] | binding result [4] | binding result [5] |
| --- | --- | --- | --- | --- | --- |
| Manduca sexta V-ATPase subunit D (natural protein, V-type proton ATPase subunit D, Manduca sexta; also called rotor axle; central axle; source: purified from M. sexta midgut, as part of the V-ATPase holoenzyme) not shown | binds | binds |  |  |  |
| Manduca sexta V-ATPase subunit G (natural protein, Manduca sexta (endogenous in midgut), UniProt Q25532 1-117, looked up, V-type proton ATPase subunit G, Manduca sexta; Three copies in the holoenzyme (stator filaments S1, S2, S3); also called part of the EG stator filaments S1-S3; source: purified from M. sexta midgut, as part of the V-ATPase holoenzyme) MASQTHGIQQLLAAEKRAAEKVSEARKRKAKRLKQAKEEAQDEVEKYRQERERQFKEFEAKHMGTREGVAAKIDAETRIKIDEMNKMVQTQKEAVIKDVLNLVYDIKPELHINYRVV |  |  | binds | binds | binds |
| B1 |  |  | binds |  | binds |
